Data taken from US11807887B2, “Compositions and methods related to nucleic acid synthesis” (Nuclera Ltd., priority 2015, dated 2023).

Experiments:
Format in all cases: biochemical
[1] = system: single-stranded DNA initiator (SEQ ID NO: 7); experiment: Engineered versus wild-type Lepisosteus oculatus TdT, addition of 3′-reversibly blocked dNTP measured by PAGE; details: 3′-reversibly blocked dCTP, dGTP or dTTP, 1 mM, 37° C., 20 min
Experimental: Addition of the dNTP was measured by PAGE and the conversion relative to wild-type TdT was plotted.
A single-stranded DNA initiator (SEQ ID NO: 7) was incubated with either a purified wild-type Lepisosteus oculatus TdT or a purified, recombinant engineered form of Lepisosteus oculatus TdT (SEQ ID NO: 8), required salts, cobalt chloride, Saccharomyces cerevisiae inorganic pyrophosphatase, and 3′-O-azidomethyl dTTP at 37° C. for 20 min.

[2] = system: single-stranded DNA initiator (SEQ ID NO: 7); experiment: Engineered Lepisosteus oculatus TdT versus Bos taurus TdT, denaturing PAGE gel; details: 3′-O-azidomethyl dTTP, 37° C., 10 min
Experimental: A single-stranded DNA initiator (SEQ ID NO: 7) was incubated with a purified, recombinant engineered form of Lepisosteus oculatus TdT, required salts, cobalt chloride, Saccharomyces cerevisiae inorganic pyrophosphatase, and 3′-O-azidomethyl dTTP at 37° C. for 10 min.

[3] = system: single-stranded DNA initiator (SEQ ID NO: 7); experiment: Addition of 3′-O-azidomethyl nucleotide triphosphates to a DNA initiator by TdT orthologs, capillary electrophoresis; details: for performance in adding 3′-O-azidomethyl dTTP and 3′-O-azidomethyl dCTP compared to Bos taurus TdT: 20 min, capillary electrophoresis; for ability to add 3′-O reversibly terminated (blocked) nucleotide triphosphates: 3′-O-azidomethyl nucleotide triphosphate, FIG. 3
Experimental: (A) A single-stranded DNA initiator was incubated with TdT with the indicated species for 60 min in the above mentioned buffer and reaction conditions. Reactions were then analysed by capillary electrophoresis and a subset of chromatograms are shown. (B) Fraction of DNA initiator strand converted to N+1 species (addition of 3′-O-azidomethyl dTTP) in one hour. (C) Three TdT orthologs were reacted with 3′-O-azidomethyl dTTP and 3′-O-azidomethyl dCTP for 20 min.
A single-stranded DNA initiator (SEQ ID NO: 7) was incubated with purified, recombinant TdT orthologs, required salts (50 mM potassium acetate, 20 mM tris acetate pH 7.9, 1.5 mM cobalt chloride, Saccharomyces cerevisiae inorganic pyrophosphatase), and 3′-O-azidomethyl dTTP at 37° C. for 60 min. The 3′-blocked nucleotide triphosphate was at a concentration of 1 mM and the DNA initiator at 200 nM and analysed via capillary electrophoresis as shown in FIG. 3(A).
The experiment was repeated with the exception that both 3′-O-azidomethyl dTTP and 3′-O-azidomethyl dCTP was used as the 3′-blocked nucleotide triphosphate. The reaction was stopped after 20 min and analysed via capillary electrophoresis.

B1: engineered variant (SEQ ID NO: 8): variant of SEQ ID NO: 2 engineered for improved activity by alteration of the amino acid sequence (protein)
chain: MLHIPIFPPIKKRQKLPESRNSCKYEVKFSEVAIFLVERKMGSSRRKFLTNLARSKGFRIEDVLSDAVTHVVAENNSADELLQWLQNSSLGDLSKIEVLDISWFTECMGAGKPVQVEARHCLVKSCPVIDQYLEPSTVETVSQYACQRRTTMENHNQIFTDAFAILAENAEFNESEGPCLAFMRAASLLKSLPHAISSSKDLEGLPCLGDQTKAVIEDILEYGQCSKVQDVLCDDRYQTIKLFTSVFGVGLRTAEKWYRKGFHSLEEVQADNAIHFTKMQKAGFLYYDDISAAVCKAEAQAIGQIVEETVRLIAPDAIVTLTGGFRRGKECGHDVDFLITTPEMGKEVWLLNRLINRLQNQGILLYYDIVESTFDKTRLPCRKFEAMDHFQKCFAIIKLKKELAAGRVQKDWKAIRVDFVAPPVDNFAFALLGWTGSRQFERDLRRFARHERKMLLDNHALYDKTKKIFLPAKTEEDIFAHLGLDYIDPWQRNA
[1]
  conversion of initiator strand of length n to n+1 versus wild-type Lepisosteus oculatus TdT: improved ability to convert the initiator strand of length n to a strand of length n+1
[2]
  incorporation of 3′-reversibly blocked nucleotides versus Bos Taurus TdT: much better than Bos Taurus TdT
  incorporation of 3′-reversibly blocked nucleotides versus wild-type Lepisosteus oculatus TdT: better than the wild-type Lepisosteus oculatus TdT

B2: Lepisosteus oculatus TdT: terminal deoxynucleotidyl transferase sequence from Lepisosteus oculatus (UniProt: W5MK82) (protein, listed as Lepisosteus oculatus)
chain: MLHIPIFPPIKKRQKLPESRNSCKYEVKFSEVAIFLVERKMGSSRRKFLTNLARSKGFRIEDVLSDAVTHVVAEDNSADELWQWLQNSSLGDLSKIEVLDISWFTECMGAGKPVQVEARHCLVKSCPVIDQYLEPSTVETVSQYACQRRTTMENHNQIFTDAFAILAENAEFNESEGPCLAFMRAASLLKSLPHAISSSKDLEGLPCLGDQTKAVIEDILEYGQCSKVQDVLCDDRYQTIKLFTSVFGVGLKTAEKWYRKGFHSLEEVQADNAIHFTKMQKAGFLYYDDISAAVCKAEAQAIGQIVEETVRLIAPDAIVTLTGGFRRGKECGHDVDFLITTPEMGKEVWLLNRLINRLQNQGILLYYDIVESTFDKTRLPCRKFEAMDHFQKCFAIIKLKKELAAGRVQKDWKAIRVDFVAPPVDNFAFALLGWTGSRQFERDLRRFARHERKMLLDNHALYDKTKKYLKKKTTNNYLALNDVCSDLSEWHYKG
[3]
  performance in adding 3′-O-azidomethyl dTTP and 3′-O-azidomethyl dCTP compared to Bos taurus TdT: consistently perform better compared to Bos taurus TdT

B3: Sarcophilus harrisii TdT: terminal deoxynucleotidyl transferase sequence from Sarcophilus harrisii (UniProt: G3VQ55) (protein, listed as Sarcophilus harrisii)
chain: MHRIRTTDSDHGKKRQKKMDAISSKLYEIKFHEFVLFILEKKMGATRRTFLMDLARKKGFRVESELSNSVTHIVAENNSGSDVLAWLEAHKLETTAHFELLDVSWLIECMKVGKPVDTKGKYQLVESSIASANPDPNEGMLKIQSPAMNAISPYACQRRTTLNNHNQRFTDAFEILAKNYEFRENHGHCLTFLRATSVLKCLPFAIVSMKDAEGLPWIGDEVKGIMEEIIEDGQSLEVQAVLNDERYQAFKLFTSVFGVGLKTAEKWYRMGFRTLSKIQSDKSLKFTKMQKAGFLYYEDLISCVSKAEADAVSLIVKEAVWTFLPDALITITGGFRRGKEFGHDVDFLITSPGGEKEQVDQLLQKVTNLWEKQGLLLYYDLMESTFEDLKLPSRKVDALDHFQKCFLILKLYCQRGDRSKWEGPEGSNGLQTKNWKAIRVDLVVCPYDRYAYALLGWSGSRQFERDLRRYATHEKKMMLDNHALYDKTKRTFLKAESEEEIFSHLGLEYIEPWERNA
[3]
  performance in adding 3′-O-azidomethyl dTTP and 3′-O-azidomethyl dCTP compared to Bos taurus TdT: consistently perform better compared to Bos taurus TdT

B4: Bos taurus TdT: commercially available terminal deoxynucleotidyl transferase from Bos taurus (UniProt: P06526) (protein, listed as Bos taurus)
chain: MDPLCTASSGPRKKRPRQVGASMASPPHDIKFQNLVLFILEKKMGTTRRNFLMELARRKGFRVENELSDSVTHIVAENNSGSEVLEWLQVQNIRASSQLELLDVSWLIESMGAGKPVEITGKHQLVVRTDYSATPNPGFQKTPPLAVKKISQYACQRKTTLNNYNHIFTDAFEILAENSEFKENEVSYVTFMRAASVLKSLPFTIISMKDTEGIPCLGDKVKCIIEEIIEDGESSEVKAVLNDERYQSFKLFTSVFGVGLKTSEKWFRMGFRSLSKIMSDKTLKFTKMQKAGFLYYEDLVSCVTRAEAEAVGVLVKEAVWAFLPDAFVTMTGGFRRGKKIGHDVDFLITSPGSAEDEEQLLPKVINLWEKKGLLLYYDLVESTFEKFKLPSRQVDTLDHFQKCFLILKLHHQRVDSSKSNQQEGKTWKAIRVDLVMCPYENRAFALLGWTGSRQFERDIRRYATHERKMMLDNHALYDKTKRVFLKAESEEEIFAHLGLDYIEPWERNA
[3]
  ability to add 3′-O reversibly terminated (blocked) nucleotide triphosphates: only efficiently adds irreversibly blocked nucleotides
[3]; listed as recombinant TdT sourced from calf thymus
  ability to add 3′-O reversibly terminated (blocked) nucleotide triphosphates: unable to add 3′-O-terminated nucleotide triphosphates in a quantitative fashion
